Like-named read-outs stand apart in the source and are kept apart here. One block for each molecule: values may come before it. *: point of attachment. TAMRA = 5-carboxytetramethylrhodamine, CN(C)c1ccc2c(-c3ccc(C(=O)*)cc3C(=O)[O-])c3ccc(=[N+](C)C)cc-3oc2c1
B1: S100B (wild-type, recombinant) (natural protein, bovine)
chain: MSELEKAVVALIDVFHQYSGREGDKHKLKKSELKELINNELSHFLEEIKEQEVVDKVMETLDSDGDGECDFQEFMAFVAMITTACHEFFEHE

How the values were obtained:
TAMRA-TRTK12-am = test: fluorescence polarisation
[1] = target: S100B (Rattus norvegicus) (UniProt P04631); details: cited from earlier work
E72A mutant of S100B = test: fluorescence polarisation
S100B (tight site, EF2) [2] = target: T1, S100B (tight site, EF2) (Bos taurus, UniProt P02638); details: p53^367–388; ref [21]; cited from earlier work
T1 sequence (P02638 1-92): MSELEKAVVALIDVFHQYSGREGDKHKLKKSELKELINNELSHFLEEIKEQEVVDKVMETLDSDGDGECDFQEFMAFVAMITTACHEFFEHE

S100B (tight site, EF2) [3] = target: T1, S100B (tight site, EF2); details: p53^367–388; ref [21]; cited from earlier work; remark: listed apart in the source
crystal structure = target: the molecule itself; test: crystal structure
[4] = target: B1; test: fluorescence polarisation
[5] = target: B1; test: fluorescence polarisation; remark: listed apart in the source
[6] = target: B1; test: fluorescence polarisation; remark: listed apart in the source
[7] = target: B1; test: crystal structure
[8] = target: B1; test: fluorescence polarisation; remark: listed apart in the source

- Kd (TAMRA-TRTK12-am): 16.8 µM
Molecule: E72A mutant of S100B (natural protein)

Molecule: S100B (from UniProt P04631)
- Kd [1]: < 1 nM

- Kapp (E72A mutant of S100B): 110 µM
- Kd (E72A mutant of S100B): 3.2 µM
Molecule: TRTK-12 peptide (derived from the actin capping protein CapZ, residues 265-276)

Molecule: p53^367–388: peptide derived from the negative regulatory domain of p53 (residues 367–388)
- Fold increase in Mn2+ binding of S100B with p53 peptide bound (S100B (tight site, EF2) [2]): 3 fold
- Fold increase in Ca2+ affinity of S100B EF2 with p53 peptide bound (S100B (tight site, EF2) [3]): 3 fold

Molecule: B1
- stoichiometry N (crystal structure): 2

- Kd [4]: 1200 ± 200 nM
- Kd [5]: 6 ± 2 µM
B2: TAMRA-TRTK12-am (peptide)
peptide: {TAMRA}-TRTKIDWNKILS-NH2
SMILES: CC[C@H](C)[C@H](NC(=O)[C@H](CCCCN)NC(=O)[C@H](CC(N)=O)NC(=O)[C@H](Cc1c[nH]c2ccccc12)NC(=O)[C@H](CC(=O)O)NC(=O)[C@@H](NC(=O)[C@H](CCCCN)NC(=O)[C@@H](NC(=O)[C@H](CCCNC(=N)N)NC(=O)[C@@H](NC(=O)c1ccc(-c2c3ccc(=[N+](C)C)cc-3oc3cc(N(C)C)ccc23)c(C(=O)[O-])c1)[C@@H](C)O)[C@@H](C)O)[C@@H](C)CC)C(=O)N[C@@H](CC(C)C)C(=O)N[C@@H](CO)C(N)=O

- Kd [6]: 3000 ± 1000 nM
- stoichiometry N [7]: 1 per S100B subunit
- Kd [8]: 2900 ± 500 nM
Molecule: TRTKIDWNKILS [TRTK-12 peptide (derived from the actin capping protein CapZ, residues 265-276)]

— article PMC2843395 (Journal of molecular biology, 2010)
